The record followed here is patent US20150064204A1 (Amgen, published 2015).

Numbering of substitutions follows the chain as printed.

The target of experiment [1] is T1, human GITR (Glucocorticoid-induced TNFR-related gene, TNFRSF18) (human, UniProt Q9Y5U5 26-241).
T1 sequence: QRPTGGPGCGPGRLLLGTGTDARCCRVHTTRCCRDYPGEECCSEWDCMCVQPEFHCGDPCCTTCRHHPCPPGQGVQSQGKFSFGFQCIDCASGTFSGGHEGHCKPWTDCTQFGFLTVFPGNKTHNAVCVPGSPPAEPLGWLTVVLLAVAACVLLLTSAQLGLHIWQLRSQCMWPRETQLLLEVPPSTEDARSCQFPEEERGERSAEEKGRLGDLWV
Description: cell-based or functional assay.

Experiment [2] concerns the target T1, human GITR (Glucocorticoid-induced …). As to the kind of experiment: flow cytometry (MFI), antibody titration on anti-CD3-activated primary human T cells (CD25+CD4+). (Flow cytometry measures light scatter and fluorescence of single cells or particles in a stream.)
In experiment [3] the target is T2, human GITR (human, UniProt Q9Y5U5 26-241).
T2 construct: also called TNFRSF18; Glucocorticoid-induced TNFR-related gene
T2 sequence: T1 sequence
As to the kind of experiment: flow cytometry on activated human T cells.

For experiment [4], the target named is T2, human GITR. As to the kind of experiment: cell-based or functional assay.

B1: 34G4 (antibody, human IgG1, kappa, V domains shown)
VH: QVQLVESGGGVVQPGRSLRLSCAASGFTFSSYGMHWVRQAPGKGLEWVAVIWYEGSNKYYADSVKGRFTISRDNSKNTLYLQMNSLRAEDTAVYYCARGGQLGYYYYYGMDVWGQGTTVTVSS
VL: DIQMTQSPSSLSASVGDRVTITCRASQGIRNDLGWYQQKPGKAPKRLIYDASSLQSGVPSRFSGSGSGTDFTLTISSLQPEDFATYYCLQLNSYPWTFGQGTKVEIKR
notes: Fully human parental antibody; also called Ab4; SS-12415
As for B1, in experiment [1], the “IFNg Secretion (Fold over CD3)” value amounted to 1.9 fold over CD3 and the “IFNg Secretion EC50” value worked out at 0.0002 µg/mL. Further, a half-maximal response in experiment [2] (EC50) required 0.038 µg/mL.

B2: 41E11 (antibody, human IgG1, kappa, V domains shown)
VH: B1 VH with L4V, H35Y, K65R, V93L, Y104K, Y105D, Y108S
VL: B1 VL with G28V, D50A, D70E, L91H, W96L, Q100G
notes: Fully human parental antibody; also called Ab6; SS-12417
Take B2: in experiment [1], the “IFNg Secretion (Fold over CD3)” value was 2 fold over CD3 and the “IFNg Secretion EC50” value was determined as 0.0003 µg/mL. Further, the concentration for a half-maximal effect (EC50) (as a rule, the concentration that produces a half-maximal response) in experiment [2] amounted to 0.048 µg/mL.

B3: 9H6 (antibody, human IgG1, kappa, V domains shown)
VH: B1 VH with A23V, V37I, Q101R, Y104K, Y105D, Y108S
VL: B1 VL with K45N, D50A, A51T, D70E, L91H, S93T
notes: Fully human parental antibody; also called Ab19; SS-10945
B3: in experiment [1], the “IFNg Secretion (Fold over CD3)” value was 1.9 fold over CD3 and the “IFNg Secretion EC50” value amounted to 0.0005 µg/mL. The molecule also came in with an EC50 in experiment [2] of 0.026 µg/mL.

B4: 1D7 (antibody, human IgG1, kappa, V domains shown)
VH: B1 VH with A49T, Y104K
VL: B1 VL with D70E, L91H, S93N
notes: Fully human parental antibody; also called Ab1; SS-10942
B4: in experiment [1], the “IFNg Secretion (Fold over CD3)” value came to 2.2 fold over CD3 and the “IFNg Secretion EC50” value amounted to 0.0008 µg/mL. Moreover, the EC50 in experiment [2] worked out at 0.024 µg/mL.

B5: 49D9v1 (antibody, human IgG1, kappa, V domains shown)
VH: B1 VH with V2M, R16G, E54A, Q101R, Y104F
VL: B1 VL with D50A, D70E
notes: tied to 49D9v1 by Ab22 / SS-12562; also called Ab22; SS-12562
For B5, in experiment [1], the “IFNg Secretion (Fold over CD3)” value amounted to 1.3 fold over CD3 and the “IFNg Secretion EC50” value came out at 0.0005 µg/mL. Further, the response in experiment [2] was half-maximal at 0.051 µg/mL (EC50).

B6: 33C9 (antibody, human IgG1, kappa, V domains shown)
VH: B1 VH with L4V, A49S, Q101L
VL: B1 VL with D70E, L91H, N92H
notes: Fully human parental antibody; also called Ab2; SS-12413
As for B6, in experiment [1], the “IFNg Secretion (Fold over CD3)” value was 2.7 fold over CD3 and the “IFNg Secretion EC50” value came to 0.001 µg/mL. In experiment [2], this molecule registered an EC50 of 0.035 µg/mL.

B7: 48H12 (antibody, human IgG1, kappa, V domains shown)
VH: B1 VH with E54A, L79V, G103A, Y104L
VL: B1 VL with D50A, D70E, L91H, S93N
notes: Fully human parental antibody; also called Ab12; SS-12422
Consider B7, for which, in experiment [1], the “IFNg Secretion (Fold over CD3)” value worked out at 1.2 fold over CD3 and the “IFNg Secretion EC50” value stood at 0.0008 µg/mL. Besides, in experiment [2], the EC50 was determined as 0.048 µg/mL.

B8: 7A10 (antibody, human IgG1, kappa, V domains shown)
VH: B1 VH with V48M, E54V, R87S, Q101E, Y104R, Y105D, Y108S
VL: B1 VL with D50A, D70E, L89Q, L91H
notes: Fully human parental antibody; also called Ab18; SS-10944
Take B8: in experiment [1], the “IFNg Secretion (Fold over CD3)” value was 2.2 fold over CD3 and the “IFNg Secretion EC50” value is 0.0002 µg/mL. In addition, the concentration giving a half-maximal response (EC50) in experiment [2] came to 0.027 µg/mL.

B9: 42A11 (antibody, human IgG1, kappa, V domains shown)
VH: B1 VH with Y108S
VL: B1 VL with D82E, L91H, S93N
notes: Fully human parental antibody; also called Ab8; SS-12418
Take B9: in experiment [1], the “IFNg Secretion (Fold over CD3)” value is 1.9 fold over CD3 and the “IFNg Secretion EC50” value is 0.0012 µg/mL. This molecule also came in with a half-maximal effective concentration (EC50) in experiment [2] of 0.051 µg/mL.

B10: 33F6 (antibody, human IgG1, kappa, V domains shown)
VH: B1 VH with S31N, E54V, Q101E, G103R, Y104L
VL: B1 VL with D50A, D70E, I75V
notes: Fully human parental antibody; also called Ab3; SS-12414
Take B10: in experiment [1], the “IFNg Secretion (Fold over CD3)” value was determined as 2.8 fold over CD3 and the “IFNg Secretion EC50” value was 0.0004 µg/mL. Besides, in experiment [2], the half-maximal effective concentration (EC50) is 0.053 µg/mL.

B11: 35B10 (antibody, human IgG1, kappa, V domains shown)
VH: B1 VH with E54A, Q101E, G103S, Y104F
VL: B1 VL with D50A, S53T, D70E, L91H, S93N
notes: Fully human parental antibody; also called Ab5; SS-12416
Regarding B11, in experiment [1], the “IFNg Secretion (Fold over CD3)” value worked out at 1.9 fold over CD3 and the “IFNg Secretion EC50” value came to 0.0005 µg/mL. Also, the EC50 in experiment [2] worked out at 0.033 µg/mL.

B12: 41G5 (antibody, human IgG1, kappa, V domains shown)
VH: B1 VH with E54P, Q101E, Y104R
VL: B1 VL with I21V, D50A, D70E, L91H, S93N, E105D
notes: Fully human parental antibody; also called Ab7; SS-12428
As for B12, in experiment [1], the “IFNg Secretion (Fold over CD3)” value is 1.9 fold over CD3 and the “IFNg Secretion EC50” value was 0.0008 µg/mL. Further, in experiment [2], the EC50 came out at 0.033 µg/mL.

B13: 48H7 (antibody, human IgG1, kappa, V domains shown)
VH: B1 VH with H35Y, Y95F, Q101E, Y104R, Y105D, Y108S
VL: B1 VL with G28V, D50A, D70E, L91H, W96I, Q100G
notes: Fully human parental antibody; also called Ab13; SS-12423
Consider B13, for which, in experiment [1], the “IFNg Secretion (Fold over CD3)” value was 1.2 fold over CD3 and the “IFNg Secretion EC50” value was 0.0006 µg/mL. In experiment [2], this molecule yielded a concentration for a half-maximal effect (EC50) of 0.045 µg/mL.

B14: 5H7 (antibody, human IgG1, kappa, V domains shown)
VH: QVQLQESGPGLVKPSQTLSLTCTVSGGSISSGGYFWSWIRQHPGKGLEWIGYIYYSGTTYYNPSLKSRVTISIDTSKNHFSLKLSSVTAADTAVYYCARDLFYYDSSGPRGFDPWGQGTLVTVSS
VL: EIVLTQSPGTLSLSPGERATLSCRASQTVSSNYLAWYQQKPGQAPRLLIYGSSTRATGIPDRFSGSGSGTDFTLTISRLEPEDFAVYYCQQYDSSPWTFGQGTKVEIKR
notes: Fully human parental antibody; also called Ab17; SS-10943
B14: in experiment [1], the “IFNg Secretion (Fold over CD3)” value stood at 2.9 fold over CD3 and the “IFNg Secretion EC50” value is 0.0113 µg/mL. In experiment [2], this molecule displayed an EC50 of 0.164 µg/mL.

B15: 5H7v14 (antibody, human IgG1, kappa, V domains shown)
VH: B14 VH with Q16E, H42P, H79Q, D113E
VL: B14 VL with D93E
notes: Engineered variant; also called Ab34; SS-16924
As to B15, the EC50 with human GITR [3] was 0.995 µg/mL. In the experiment with human GITR [4], the “Proliferation (Fold over CD3)” value was 1.9 fold over CD3 and the “Proliferation EC50” value came to 0.031 µg/mL.

B16: 5H7v7 (antibody, human IgG1, kappa, V domains shown)
VH: B14 VH with Q16E, H42P, H79Q, S106T, D113E
VL: B14 VL
notes: Engineered variant; also called Ab29; SS-16917
Molecule B16 gave an EC50 in the experiment with human GITR [3] of 0.461 µg/mL. Also, in the experiment with human GITR [4], the “Proliferation (Fold over CD3)” value came to 2.1 fold over CD3 and the “Proliferation EC50” value was determined as 0.028 µg/mL.

B17: 5H7v22 (antibody, human IgG1, kappa, V domains shown)
VH: B14 VH with Q16E, H42P, H79Q, S106T, D113E
VL: B14 VL with D93E
notes: Engineered variant; also called Ab38; SS-16932
In the experiment with human GITR [3], B17 registered a half-maximal effective concentration (EC50) of 0.786 µg/mL. In the experiment with human GITR [4], the “Proliferation (Fold over CD3)” value is 1.7 fold over CD3 and the “Proliferation EC50” value was 0.027 µg/mL.

B18: 5H7v18 (antibody, human IgG1, kappa, V domains shown)
VH: B14 VH with Q16E, H42P, H79Q, D113E
VL: B14 VL with S94T
notes: Engineered variant; also called Ab36; SS-16928
As for B18, the EC50 with human GITR [3] turned out to be 0.804 µg/mL. In addition, in the experiment with human GITR [4], the “Proliferation (Fold over CD3)” value was determined as 2.7 fold over CD3 and the “Proliferation EC50” value turned out to be 0.012 µg/mL.

B19: 44C1v1 (antibody, human IgG1, lambda, V domains shown)
VH: QVQLVESGGGVVQPGRSLRLSCAASGFTLSSYGMHWVRQAPGKGLEWVAVIWYDGSNKYYADSVKGRFTISRDNSKNTLYLQMNSLRAEDTAVYYCARRGTVTTPDFDYWGQGTLVTVSS
VL: QSALTQPASVSGSPGQSITISCTGTSSDVGTYNLVSWYQQHPGKAPKLMIYEVSKRPSGVSNRFSGSKSGNTASLTISGLQAEDEADYYCASYAGFSTWVFGGGTKLTVLG
notes: tied to 44C1v1 by Ab20 / SS-12514; also called Ab20; SS-12514
As to B19, in experiment [1], the “IFNg Secretion (Fold over CD3)” value worked out at 1.6 fold over CD3 and the “IFNg Secretion EC50” value turned out to be 0.0114 µg/mL. The molecule further returned an EC50 in experiment [2] of 0.802 µg/mL.
